The record followed here is paper PMC12097070 (Advanced Science, 2025).

Holding throughout (details): both partners purified
In assay [1] the target is BSA protein (Bos taurus (Bovine)., UniProt P02769). Description: ELISA; Nbs tested on BSA protein (Figure S7); details not shown. A general note: In an ELISA, binding on a coated surface is turned into a signal by an enzyme label.
The target of assay [2] is T1, mouse GRP78 (mGRP78) (Mus musculus (Mouse)., UniProt P20029).
T1 construct: also called murine GRP78
T1 sequence (P20029 20-655): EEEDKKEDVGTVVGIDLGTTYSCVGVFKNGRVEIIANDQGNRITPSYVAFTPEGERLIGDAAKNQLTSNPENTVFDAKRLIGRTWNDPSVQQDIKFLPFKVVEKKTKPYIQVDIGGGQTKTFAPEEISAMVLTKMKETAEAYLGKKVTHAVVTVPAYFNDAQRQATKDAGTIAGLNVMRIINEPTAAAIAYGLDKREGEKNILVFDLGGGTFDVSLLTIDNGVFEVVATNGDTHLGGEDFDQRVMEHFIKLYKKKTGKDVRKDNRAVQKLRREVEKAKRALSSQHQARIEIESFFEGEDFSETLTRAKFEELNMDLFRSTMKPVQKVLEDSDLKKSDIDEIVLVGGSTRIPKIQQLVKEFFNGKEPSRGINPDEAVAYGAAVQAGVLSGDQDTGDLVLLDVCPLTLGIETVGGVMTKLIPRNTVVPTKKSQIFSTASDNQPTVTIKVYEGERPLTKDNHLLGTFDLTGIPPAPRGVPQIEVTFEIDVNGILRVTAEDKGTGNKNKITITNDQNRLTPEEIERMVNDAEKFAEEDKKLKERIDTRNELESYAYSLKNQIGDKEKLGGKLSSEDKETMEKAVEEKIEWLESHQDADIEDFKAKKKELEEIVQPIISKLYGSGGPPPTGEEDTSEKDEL
The assay can be described thus: ELISA; hGRP78 or mGRP78 (10 µg mL^-1) immobilised on plates overnight at 4 °C; blocked with 3% BSA/PBS; serially diluted HA‐tagged Nbs 1 h at RT; HRP anti‐HA; OD450.

In assay [3] the target is T2, human glucose‐regulated protein 78 (hGRP78), full-length (Homo sapiens (Human)., UniProt P11021).
T2 construct: also called BiP; HSPA5
T2 sequence (P11021 19-654): as the sequence (P20029 20-655) above, with F295Y, G620A, S631A counted along it
The assay can be described thus: SPR; Biacore T100; […] (10 µg mL^-1) […]; association 120 s, dissociation 300 s; […]. (SPR reads the build-up and loss of mass on a sensor chip optically.)

BSA protein, sequence (P02769 25-607): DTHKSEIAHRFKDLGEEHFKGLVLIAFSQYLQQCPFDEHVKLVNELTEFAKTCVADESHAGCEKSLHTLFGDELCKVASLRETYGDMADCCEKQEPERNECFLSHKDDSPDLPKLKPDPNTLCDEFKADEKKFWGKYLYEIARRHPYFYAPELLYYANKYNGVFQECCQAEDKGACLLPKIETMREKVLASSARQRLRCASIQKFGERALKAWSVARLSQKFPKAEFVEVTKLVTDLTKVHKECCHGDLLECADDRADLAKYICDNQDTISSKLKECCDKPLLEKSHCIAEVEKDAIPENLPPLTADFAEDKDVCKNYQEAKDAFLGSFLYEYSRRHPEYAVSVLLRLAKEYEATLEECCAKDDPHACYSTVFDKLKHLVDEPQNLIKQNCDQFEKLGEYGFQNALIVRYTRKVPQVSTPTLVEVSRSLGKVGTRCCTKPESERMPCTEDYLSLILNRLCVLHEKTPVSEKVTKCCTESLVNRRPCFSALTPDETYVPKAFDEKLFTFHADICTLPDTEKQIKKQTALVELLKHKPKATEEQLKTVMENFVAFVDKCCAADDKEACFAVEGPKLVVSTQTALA

B1: Nb NBD1 (VHH)
VHH: AVQLVESGGGSVQAGGSLTLSCAASINTGNPALVGWYRQAPGKQREMVAMISISGNTNYAPSVKGRFTISRDNANKTIFLQMNSLTPEDTAVYYCKKLPFGSWGQGTQVTVSS
notes: source: E. coli BL21 (DE3), purified (Ni‐NTA, AKTA Pure System)
One may read the Kd as the equilibrium constant for the complex coming apart. Turning to B1, the figures for the binding result in assay [1] and in assay [2] were “no binding” and “binds”, respectively. In addition, in assay [3], binding was put at a Kd of 3.4 nM.
